Source: the DeepSol protein solubility set

assay: soluble on expression in E. coli; label from the status in PepcDB or PDB records

Soluble on expression in E. coli, not soluble:
MGSDKIHHHHHHMTKEINPFIVTGKIEPEYFCDRVKESERLVKSLTNGNNLVIISPRRMGKTGLIRFCYEKPEIKEEYYTFFIDILHTSSLREFTYLLGKEIYETLLPRSKKMASLFIQTVKSINGKFGFDPLTNLPTFNLELGDIDRPEYTLEEIFQCLIAADKPCIVAIDEFQQIAKYPEKNIEALLRTHIQTIENSNFIFAGSERHMMQEMFLSSSRPFYHSADILELKAIVPEIYIPFIADHFQKRKRHIEIENIEKVYRLFKGHTFYIQKTFNEAFADTPKGKECTLEIIKTAIDNLIAYNDTIFREILSNIPEKQKELLYAIAKVGEAENVTSAKFIKRYSLTSASSVQSATKKLLEKDIITEINKVYSVTDKFFGMWINTIYGNKYTL
MGSDKIHHHHHHMTKNTVRTYIKQTWKTLTRSHQHLLESAQDTKLEHQPNTPWIIYISPQEDCNTVQSVLERSLSAKEMQQIEIRTLPSEVEAIQEHGLLYLPGAYVVPGGRFNEMYGWDSYFILLGLLQDEEWELAQSQVDQLLYQVQHYGTILNANRTYMLTRSQPPVLSMMVLALFQHTQDQAWLKSTLPLLEQFYYYWVVPPHLNSATGLSRYYALGEGAAPEVLFSELDETGRSHYERVKEYYKTFEIDDYDVSLFYDSERDELTDLFYKGDRSMRESGFDITNRFGPFSVDIVHYAPVCLNSLLYQMEQDLAQIHKILDNPELAEQWSDRATLRRERINQYLWDEEKGIYLDYHFYSGKRRHYEFATTFYPLWTGLSSPEQAQRIVENLSLFTAPGGIFTSTHVTGNQWDAPFGWAPLTLIAVQGLYRYGYRKEGDDIAHKFLTMAIQEFTKYGFFVEKYDVERCSAQVSDEICFGYSSNEIGFGWTNGVILELLANLDDS
MGSDKIHHHHHHMTKVAHLTSVHSRYDIRIFRKQCRTLSQYGYDVYLVVADGKGDEVKDGVRIVDVGVLSGRLNRILKTTRKIYEQALALGADVYHFHDPELIPVGLRLKKQGKQVIFDSHEDVPKQLLSKPYMRPFLRRVVAVLFSCYEKYACPKLDAVLTATPHIREKFKNINGNVLDINNFPMLGELDAMVPWASKKTEVCYVGGITSIRGVREVVKSLECLKSSARLNLVGKFSEPEIEKEVRALKGWNSVNEHGQLDREDVRRVLGDSVAGLVTFLPMPNHVDAQPNKMFEYMSSGIPVIASNFPLWREIVEGSNCGICVDPLSPAAIAEAIDYLVSNPCEAAALGRNGQRAVNERYNWDLEGRKLARFYSDLLSKRDSI
MGSDKIHHHHHHMTLADYVEIETTKDELIRACKQAADLIRTRVDYKYILVLLFLKKLSDEWKREYREALKTLMEKGVDEEEAKILAKDRSFHKFDYPEKYTWEELRKNVNELPVRLSEALKLLAEKNPELQGVVDRLDFLEFTRARDNFDILVQLFELFSGLNLGRASDSILGDAYEWLIGYFAPQKAKEGEVFTPSEVVELIVRIVDPKPMDSVYDPAAGYARMLIRAYDYVKEKYGEEEVRKLFLYGQEVNPTTYAIAKMNAIVHGIKDINLVVGDTLKNPRFKEGETFRKFDIVIANPPWNQDGYGEEELKKAEFYDERFRYGFTPKQSADWAWIQHMLASAKKKVGVVIDNGCLFRGGKEGAIRKAVVEDDLIECVILLPEKLFYNTGAPGAIIIFNKQKPESRKGKILFINASNEYEKHPEVRKLNRLGEKHIEKIVSAYREFKDGDGFCRVVDVEEVRKNDYNLNVTLYVFPQEEVEEIDVAKEWEELRGIEREIDEVERRIEEYLAELGFGRG
MGSDKIHHHHHHMTLKITKSDEVIEVKNLCVTIYSQPGLGKTSLAFTASRPLLLDFDKGAHRAVDRKDVVQVEDWRDVAGISAGDLAAYDTIVIDTVGKALDTLSADIIRANSKLSYGGALNQQGWGQLGVRFSAFLKLLRSFGKDVVLISHMDEKADGDAIKERLKISGGSKDLVLTDSDVIARISIYNRERHLIFSPTETSFGKDPANIGAMPIPEASAETYATCLSDIITQIKEGMNALSEEQVQRKAEIDWFATKLPEMTSAEEINGVLGRAKKAGKDIQKMVVARAKELGFDFDPEAREYVDPSAALADELDDEIPEFDDADEPESPAMAAE
MGSDKIHHHHHHMTLLRGDDFFTSRAVTVAVEPRTPQTAFPEHYHDFWEIVLVEQGAGVHVFNDQPYALCSGSVFFVRDNDRHLFEDVEGLCLTNMLYRSPRGFRFLSDIAAFLPYGPNGEWQGQWQVNAAGMQQLKQSLNSLAGLAQSDAPEAIAASESLFLQILVQLRQHCFQTEGNGSERQGVQALLGWLQNNYSEEVNWGGLADQFSLPLRTLHRQLKQHTGMTPQRYLNRLRLLEARRRLQQSDDSITTIAHACGFSDSNHFSTQFRKAFSQAPKSLRHQAFSREE
MGSDKIHHHHHHMTLMKPADVSQRQSTSVLHSSSHSPSQNHLLAALPQVELESFSDHLELVPMPLGEFLYEPGSGLEYVYFPTTCIVSLHYVLSSGATAETAGVGNEGVVGVSLFMGGNTTASSAVVQTAGYGYRLNKKILMREFDRSGLLQRVLLRYTQALMTQMSQTAVCNRHHSLEQQFCRWLLLTLDRMPTNELVMTHELVASMLGVYREGISLAAGKLQQAGVISYRRGHISVLDRAKLELKSCECYQVVKTELDRLLSDGLLADAKFIKTKTDTQTSKTQ
MGSDKIHHHHHHMTNQNYLAKTTNKQYIVKFFGKGTEKLINRQDEKYNLELLKDLGLDVKNYLFDIEAGIKVNEYIESAITLDSTSIKTKFDKITPILQTIHTSAKELRGEFAPFEEIKKYESLIEEQIPYANYESVRNAVFSLEKRLADLGVDRKSCHIDLVPENFIESPQGRLYLIDWEYSSMNDPMWDLAALFLESEFTSQEEETFLSHYESDQTPVSHEKIAIYKILQDTIWSLWTVYKEEQGEDFGDYGVNRYQRAIKGLASYGGSDEK
MGSDKIHHHHHHMTPPPDELLAVRQAVEWAITTRRSVRAFLPKPVTADTVEAILNTARFAATGVNIQPWKVHVLMGAAKDRVCAAIKQIDDDPAVAVMHADEWAYYPKEWTSPYVDRRRAVGWRLYSLLGIEKGDKARMQVQHGRNYQFFGAPVGLFFTVDRLMSEGSLLDYGMFLQNIMVVARTYGLSTCPQAAFMKYHRIIEQELGLGAHEKFVVGMSLGYADEERIENTLASEREPAASFTTFHEK
MGSDKIHHHHHHMTPSIPPEVAQHLGYYVYLYVDPRTEQVFYVGKGQGQRVLSHLSAEGESRKAQILAELRQAQLSPRLDILAHGLPDEATAYRIEAAAIDLLGLDSLSNLVRGWQSVRSGRRSLEELVTYYAAPPAVITDPVMLIRSNRLYWHGMPAQELYEATRGVWKVAKWRQQEVKYALAVFEGVVREVYTIESWHPAGQTPYQTRLAEAVNDPQRWEFVGHVAPEEVRNRYLYHSVTASFARNAQNPIAYPPVT
MGSDKIHHHHHHMTPTVLLANPRGFCAGVDRAIAIVERALEKFGAPIYVRHEVVHNTFVVDDLKRKGAVFVEELSEVPAGATVIFSAHGVSQAVRTEAAARGLTVFDATCPLVTKVHVEVSKMRDKGYEIVMIGHKGHPEVEGTLGQSAGGMYLVETPGDVATLEVTNPDCLAYVTQTTLSVDDAARVVDALRARFPTITGPKKDDICYATQNRQDAVKHLASQCDVVIVVGSPTSSNSNRLREVAENLGIAAYMVDNADEIDPRWVSGNQRVGVTAGASAPDVLVRAVIDRLERLGICSVSELDGVQEKVGFPLPRELA
MGSDKIHHHHHHMTQHPFISRVAVRNYKSIGYCDVNLRPLTYLVGHNGAGKSNFMDALHFVCDALSYSLDSALNERGGINEVRRRSGGHPTHFALRVEFVMQSGQAGRYGFVIGALKNGGYEVQREECVVAGIGKGPFFRIEKGKLRDSSETTFPSVTADRLALVAASGLTAFRPVFDALTAMGFYNLNPKLMRELQKPQDGRLLRPAGENIASVIGHLEKVAPAQMALIQEYLHSVAPMVHGVERKPIGPMETLEFRQDMAGSKHPWRFLAQNMSDGTLRALGVLSALLQGNVDYSPTLIGIEEPETALHPAASAALREALVRASETTQVLVTSHSPDLLDDHSIDADAVLAVVSEAGETKVAPLDEGSRQVMRDHLFSAGELLRMNQLAPDRASLEQQDKAASGDLFGETESV
MGSDKIHHHHHHMTQITPQPGIMDIALYQGGAAHVDGVSNVTKLSSNENPLGPSPAAVEAMAEAAATMHRYPSSDHATLRAAIAETHGLDAERIICGAGSDEIIAFLCQCYAGPGDEVLYTEHGFAMYRISALAAGATPVEVKERERVTDVDALLAGCTAQTKLVFIANPNNPTGTMISEAEVARLADGIPEDAILVLDGAYAEYVEGFDAGAQLIAARHNVVMTRTFSKIYGLGGARVGWAYGPQEIIDVLNRVRGPFNVSTTALAGAEAAVRDTDYVQRCRLENAKWRGWLADQLAELGVPSDTSCTNFILARFASQSEAESCDDFLKQRGLIVRRVAGYNLPTALRITIGDETACRAVAAAVKDFKAGAAE
MGSDKIHHHHHHMTQLIMRPRPGKIKLGLKASQAPAQLMDRLQYRPEVFEFFTSATDFEPEAFQTLKTAVQFVKTTVTEQIVIHHPMSYQGVHLDQLLDPHREAAAYQFLQTSTAQLLALATELDVKVLVHGGYGSDSGRLIDEYESLQVARDVVFERLDNLVRQASGHVVIENGVTASFMYGDPQLDERIIQHHYPLVCDLSHVFIALHGDMELTMLALKRLAPLIQHYHLVDSMGTRHDSLPLGQGLIDWQRVLPVLNPHATMIYEVPDETDATCANMLSSYHYLRALELRSIEGGQAND
MGSDKIHHHHHHMTQPELTPAQRTEVELLARGRADKSRVLRDLKLPETPEAAHALLLRLGVWDEARTPYADRLRAALNAVELPVPDFDPAEERLDLTHLPTFAIDDEGNQDPDDAVGVEDLGGGLTRLWVHVADVAALVAPDSPLDLEARARGATLYLPDRTIGMLPDELVAKAGLGLHEVSPALSICLDLDPDGNAEAVDVLLTRVKVQRLAYQEAQARLEAGEEPFVTLARLARASRRLREGEGALSIDLPEVRVKADETGASVFPLPKPEMRTVVQECMTLAGWGTAIFADDNEIPLPFATQDYPTREVAGDTLPAMWARRKTLARTRFQPSPGPHHGMGLDLYAQATSPMRRYLDLVVHQQLRAFLAGRDPLSSKVMAAHIAESQMNADATRQAERLSRRHHTLRFIAAQPERVWDAVVVDRRGAQATLLIPDLAFDVQVNTPAAPGTALQVQFADIDLPQMRVRARSV
MGSDKIHHHHHHMTRIALTHVTTYRYGAPVTLGEHKMMFRPRDSHDLHIVEATLVLSPVAEVRWMHDVFGNSITIADFQGASTDFLRFESKILLDHFGLSEPTYPIAAYAETFPFTYDADLVADLGRTNERHYPDPDHRLDAWARRFLDEPGETATLEMLSAMNRAISAEFSYAARDTEGTQTPLETLERGSGSCRDFALLMMEAVRSLGLAARFVSGYLYDPALDGRNASGTVGAGATHAWLQVYLPGAGWVEFDPTNALVGGENLIRVAVTRDPSQAVPITGSFAGPGNAFLSMEVEVTLHRQDQNIQVA
MGSDKIHHHHHHMTRIASHRGGTLEFGDSTPHGFTATAAMALEEVEFDLHPTADGAIVVHHDPTLDATTDMTGAIVDMTLAKVKTATIRYGAGSHPMTLEELCALYVDSHVNFRCEIKPGVDGLPYEGFVALVIAGLERHSMLERTTFSSFLLASMDELWKATTRPRLWLVSPSVLQQLGPGAVIETAIAHSIHEIGVHIDTADAGLMAQVQAAGLDFGCWAAHTPSQITKALDLGVKVFTTDRPTLAIALRTEHRMEASV
MGSDKIHHHHHHMTRIVESLAEISDLYDAVFCDLWGCVHDGITAFDEAIEALRAFKAKGGTVLLLTNAPRPRASVATQLDDFGIPRDCWDVIATSGDSARAAMLSGAVGTKVWHIGEPEHAPFFAPMDLVADAVDVTRVPLDEAEGIVCTGPFDPKADPSELRPQFLLAKTRRLKLLCANPDIVVDRGESREWCAGALAKLYTEMGGESLYFGKPHPPIYDLARRRLVQMGKPTPDDRILAIGDGIVTDVPGGIGENIDTLFITGGLARDETGTDHQPDPAKLARFLTDAQLEPTYSVGMLR
